Where “and” joins values, the source holds several entries; their conditions need not be identical. Identical values can stand only once. Like-named read-outs stand apart in the source and are kept apart here. Starred links: 1 amine or outer side, 2 acyl side, 3 side chain; linkers in the order of their positions; H or OH if unused. Positions of bridges follow the written chain, without caps; N, C: chain ends. Non-standard residues stand in square brackets, D forms with d. No end group written: not given here. *: point of attachment. TATB = O=C(C[*:1])N1CN(C(=O)C[*:2])CN(C(=O)C[*:3])C1; 1Nal = N[C@@H](Cc1cccc2ccccc12)C(=O)O; 2Nal = N[C@@H](Cc1ccc2ccccc2c1)C(=O)O; AzPro = azidopropyl, [N-]=[N+]=NCCC*; Hyp = O=C(O)[C@@H]1C[C@@H](O)CN1; tBuAla = CC(C)(C)C[C@H](N)C(=O)O; 4Pal = N[C@@H](Cc1ccncc1)C(=O)O; Tle = CC(C)(C)[C@H](N)C(=O)O; Aib = CC(C)(N)C(=O)O

For assay [1], the target named is T1, Human TfR1 protein (R&D Systems, 2474-TR or Acro Biosystems, CD1-H5243) (human, UniProt P02786 89-760). The experiment in a line: FP competition, competitor BCY15768.
Assay [2] addresses T1, Human TfR1 protein (R&D Systems, …). The experiment in a line: FP competition, competitor BCY15768. This is another data set of the same source.
In assay [3] the target is T2, Recombinant human TfR1, His6-tagged (a.a. 89-760) (human, UniProt P02786 89-760).
T2 construct: range 89-760; captured and coupled on an NTA chip for SPR; also called transferrin receptor 1; CD71
As to the kind of experiment: SPR, TfR1 on chip. In general terms: SPR reads the build-up and loss of mass on a sensor chip optically.

Assay [4] has as its target T3, Recombinant cynomolgus TfR1, His6-tagged (a.a. 89-760) (cynomolgus, UniProt H9EXL1 89-760 (rhesus entry)).
T3 construct: range 89-760; same product number named for FP and SPR; also called Cyno TfR1; Acro Biosystems TFR-C524a
As to the kind of experiment: SPR, TfR1 on chip.

T1 sequence (P02786 89-760 limits assumed): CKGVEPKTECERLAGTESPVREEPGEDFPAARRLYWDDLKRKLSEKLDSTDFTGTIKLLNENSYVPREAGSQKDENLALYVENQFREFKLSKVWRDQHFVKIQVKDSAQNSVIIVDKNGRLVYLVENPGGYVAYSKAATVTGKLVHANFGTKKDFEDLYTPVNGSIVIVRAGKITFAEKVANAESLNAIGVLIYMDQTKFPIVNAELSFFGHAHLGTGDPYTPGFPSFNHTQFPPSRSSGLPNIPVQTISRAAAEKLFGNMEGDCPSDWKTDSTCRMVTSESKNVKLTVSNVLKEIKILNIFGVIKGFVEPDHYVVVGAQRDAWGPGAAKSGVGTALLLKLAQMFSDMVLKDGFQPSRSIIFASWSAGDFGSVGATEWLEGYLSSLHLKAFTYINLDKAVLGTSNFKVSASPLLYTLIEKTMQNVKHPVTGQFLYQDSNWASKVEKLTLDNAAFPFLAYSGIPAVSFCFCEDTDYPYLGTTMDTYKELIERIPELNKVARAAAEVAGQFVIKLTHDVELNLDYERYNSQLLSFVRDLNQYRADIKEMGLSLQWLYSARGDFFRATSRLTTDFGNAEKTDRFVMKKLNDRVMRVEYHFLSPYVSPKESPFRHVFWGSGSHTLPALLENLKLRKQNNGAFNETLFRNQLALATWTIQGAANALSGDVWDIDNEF
T2 sequence (P02786 89-760 limits assumed): as above
T3 sequence (chain, as listed by the source): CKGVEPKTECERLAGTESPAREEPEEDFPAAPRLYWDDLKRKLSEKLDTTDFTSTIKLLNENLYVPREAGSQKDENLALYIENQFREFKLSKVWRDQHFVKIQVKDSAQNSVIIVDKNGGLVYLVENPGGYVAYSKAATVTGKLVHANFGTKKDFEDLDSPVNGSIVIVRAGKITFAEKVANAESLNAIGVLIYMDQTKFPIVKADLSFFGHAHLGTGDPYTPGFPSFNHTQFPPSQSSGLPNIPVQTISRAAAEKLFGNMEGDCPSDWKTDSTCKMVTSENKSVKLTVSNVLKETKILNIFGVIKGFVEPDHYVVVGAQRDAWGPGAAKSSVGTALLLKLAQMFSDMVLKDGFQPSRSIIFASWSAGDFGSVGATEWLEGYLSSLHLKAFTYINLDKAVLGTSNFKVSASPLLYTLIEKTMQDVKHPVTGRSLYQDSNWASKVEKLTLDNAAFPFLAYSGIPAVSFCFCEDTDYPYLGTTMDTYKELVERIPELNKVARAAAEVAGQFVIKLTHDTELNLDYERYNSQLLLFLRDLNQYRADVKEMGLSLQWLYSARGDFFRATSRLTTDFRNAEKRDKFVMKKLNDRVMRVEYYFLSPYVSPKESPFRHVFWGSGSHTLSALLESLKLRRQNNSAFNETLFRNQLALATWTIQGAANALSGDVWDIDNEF

B1: BCY15935 (peptide)
peptide: CSPDAHLGCISYC
modifications: 3 Cys on a scaffold (TATA or TATB assumed by the filing for non-inhibitory peptides; not stated for this one)
Usually Ki stands for a measure of affinity in units of concentration, obtained from inhibition or displacement. A high value points to a looser hold on the target. For B1, the Ki in assay [1] and in assay [2] was 300 nM in each case.

B2: BCY17991 (peptide)
peptide: CPXDAYLGCXSYC
modifications: 3 Cys on TATB; N-terminal acetyl (Ac); core as printed CP[HyP]DAYLGC[tBuGly]SYC
The term Kd denotes the constant that tells how readily two partners part at equilibrium. In the case of B2, the Ki in assay [1] was found to be 2 nM; in assay [2], 3 nM. Also, the values for the Kd in assay [3] and in assay [4] were 3.4 nM and 35 nM, respectively.

B3: BCY16029 (peptide)
peptide: ACSPDAHLGCIS[1Nal]CA
modifications: linker 2-10-14 via TATB
With B3, the dissociation constant (Kd) in assay [4] was found to be 5480 nM.

B4: BCY16032 (peptide)
peptide: ACSPDAHLGCIS[4Pal]CA
modifications: linker 2-10-14 via TATB
As for B4, the Ki in assay [1] and in assay [2] was 654 nM in each case. Further, the Kd in assay [3] came out at 305 nM; in assay [4] it was 30000 nM.

B5: BCY17993 (peptide)
peptide: NWNCPXDAYLGCXSYC
modifications: 3 Cys on TATB; N-terminal acetyl (Ac); core as printed CP[HyP]DAYLGC[tBuGly]SYC
In the case of B5, the Ki in assay [1] came out at 3 nM; in assay [2], 5 nM. For the same molecule, the Kd turned out to be 9 nM in assay [3] and 235 nM in assay [4].

B6: BCY17870 (peptide)
peptide: NWNCSPDAHLGCISYCK
modifications: 3 Cys on TATB; C-terminal [K(N3)] 6-azido lysine
In turn, B6 registered a Ki in assay [2] of 9 nM.

B7: BCY17109 (peptide)
peptide: NWNCSPDAHLGCISYCA
modifications: linker 4-12-16 via TATB
On to B7, for which the Kd in assay [4] was 281 nM and 535 nM.

B8: BCY17990 (peptide)
peptide: Ac-CP[Hyp]DAYLGCISYC
modifications: linker 1-9-13 via TATB
As for B8, affinity in assay [2] was put at a Ki of 8 nM.

B9: BCY17115 (peptide)
peptide: ACSPDAHLGCISYCPHP-NH2
modifications: linker 2-10-14 via TATB (inferred)
As for B9, the Ki in assay [1] and in assay [2] was 30 nM in each case. The values for the Kd in assay [3] and in assay [4] were 60 nM and 1240 nM, respectively.

B10: BCY17989 (peptide)
peptide: Ac-CS[Hyp]DAHLGCISYC
modifications: linker 1-9-13 via TATB
B10 had a Ki in assay [1] of 30 nM.

B11: BCY16031 (peptide)
peptide: ACSPDAHLGCIS[2Nal]CA
modifications: linker 2-10-14 via TATB
B11: the Ki in assay [1] and in assay [2] was 119 nM in each case. For the same molecule, the Kd in assay [3] was 68 nM; in assay [4] it was 6480 nM.

B12: BCY17110 (peptide)
peptide: HWMCSPDAHLGCISYCA
modifications: linker 4-12-16 via TATB
As to B12, the Ki in assay [1] and in assay [2] was 22 nM each time. Further, the Kd stood at 15 nM in assay [3] and 232 nM in assay [4].

B13: BCY17994 (peptide)
peptide: Ac-CSPDAHLGCISYCEPW-NH2
modifications: linker 1-9-13 via TATB (inferred)
As to B13, the Ki in assay [1] and in assay [2] was 8 nM each time. Moreover, the Kd in assay [4] amounted to 688 nM.

B14: BCY18038 (peptide)
peptide: Ac-CSPDAHLGCISYCE[dP]W
modifications: linker 1-9-13 via TATB (inferred)
For the molecule B14, the Kd in assay [4] worked out at 1650 nM.

B15: BCY15468 (peptide)
peptide: ACSPDAHLGCISYCA
modifications: linker 2-10-14 via TATB
Take B15: the Ki in assay [2] worked out at 103 nM.

B16: BCY17995 (peptide)
peptide: CPXDAYLGCXSYCEPW
modifications: 3 Cys on TATB; N-terminal acetyl (Ac); core as printed CP[HyP]DAYLGC[tBuGly]SYC
In the case of B16, the values for the Ki in assay [1] and in assay [2] were 2 nM and 5 nM, respectively. Also, the Kd in assay [3] worked out at 3.4 nM.

B17: BCY15891 (peptide)
peptide: Ac-CSPDAHLGCISYC
modifications: linker 1-9-13 via TATB
For B17, the Ki was 67 nM in assay [1] and 94 nM in assay [2]. Further, the Kd in assay [3] amounted to 46 nM; in assay [4], 3990 nM.

B18: BCY17986 (peptide)
peptide: Ac-CAPDAHLGCISYC
modifications: linker 1-9-13 via TATB (inferred)
For the molecule B18, the Kd in assay [4] came out at 4660 nM.

B19: BCY17987 (peptide)
peptide: Ac-CSADAHLGCISYC
modifications: linker 1-9-13 via TATB (inferred)
For B19, the Ki worked out at 42 nM in assay [1] and 383 nM in assay [2]. Also, the Kd was 50 nM in assay [3] and 5140 nM in assay [4].

B20: BCY17992 (peptide)
peptide: Ac-NWNCSPDAHLGCISYC
modifications: linker 4-12-16 via TATB (inferred)
With B20, the Kd in assay [4] came out at 535 nM.

B21: BCY16550 (peptide)
peptide: ACPXDAHLGCISYCA
modifications: 3 Cys on TATB; core as printed CP[Aib]DAHLGCISYC
B21: the Ki in assay [1] and in assay [2] was 56 nM each time. The Kd in assay [3] is 18 nM; in assay [4] it was 682 nM.

B22: BCY18033 (peptide)
peptide: NWNCPXDAYLGCXSYC
modifications: 3 Cys on TATB; core as printed CP[HyP]DAYLGC[tBuGly]SYC
For B22, the Ki came out at 4 nM in assay [1] and 6 nM in assay [2]. Further, the Kd in assay [4] stood at 589 nM.

B23: BCY20546 (peptide)
peptide: CPXDAYLGCXSYC
modifications: 3 Cys on TATA; N-terminal acetyl (Ac); core as printed CP[HyP]DAYLGC[tBuGly]SYC
notes: Same peptide as BCY17991 but cyclised on TATA
As for B23, in assay [3], the dissociation constant (Kd) stood at 1660 nM.

B24: BCY16963 (peptide)
peptide: ACP[Aib]DAYLGC[Tle]SYCA
modifications: linker 2-10-14 via TATB
For B24, the Kd in assay [4] was 501 nM.

B25: BCY16962 (peptide)
peptide: ACP[Aib]DAHLGC[Tle]SYCA
modifications: linker 2-10-14 via TATB
As for B25, the Ki in assay [1] and in assay [2] was 36 nM each time. Besides, the Kd in assay [3] came to 6.1 nM; in assay [4] it was 599 nM.

B26: BCY16753 (peptide)
peptide: ACS[Aib]DAHLGC[Tle]SYCA
modifications: linker 2-10-14 via TATB
Take B26: the Ki in assay [1] and in assay [2] was 48 nM in each case. Moreover, the Kd in assay [3] was determined as 12 nM; in assay [4], 1700 nM.

B27: BCY18034 (peptide)
peptide: Ac-N[1Nal]NCSPDAHLGCISYC
modifications: linker 4-12-16 via TATB
As to B27, the Kd in assay [4] amounted to 2080 nM.

B28: BCY17114 (peptide)
peptide: ACSPDAHLGCISYCEPW
modifications: linker 2-10-14 via TATB (inferred)
On to B28, for which the Kd in assay [4] was 845 nM.

B29: BCY15648 (peptide)
peptide: ACYLPDWXCGDEYCA
modifications: not fully specified; 3 Cys on TATB; core as printed CYLPDW[tBuAla]CGDEYC
B29: the inhibition constant Ki in assay [1] turned out to be 107 nM.

B30: BCY17871 (peptide)
peptide: NWNCSPDAHLGCISYCK
modifications: 3 Cys on TATB; N-terminal acetyl (Ac); C-terminal [K(N3)] 6-azido lysine
Turning to B30, the affinity in assay [2], expressed as Ki, was 9 nM.

B31: BCY17120 (peptide)
peptide: ACSPDAHLGCISYCPIVH
modifications: linker 2-10-14 via TATB (inferred)
As for B31, the Kd in assay [4] is 1260 nM.

B32: BCY17112 (peptide)
peptide: NEVCSPDAHLGCISYCA
modifications: linker 4-12-16 via TATB (inferred)
For the molecule B32, in assay [4], the Kd is 2600 nM.

B33: BCY17869 (peptide)
peptide: AzPro-CSPDAHLGCISYC
modifications: linker 1-9-13 via TATB (inferred)
The molecule B33 displayed a Ki in assay [2] of 30 nM.

B34: BCY18036 (peptide)
peptide: NWNCSPDAHLGCISYC
modifications: 3 Cys on TATB; N-terminal acetyl (Ac); [NMeTrp] in N-terminal extension
B34 showed an inhibition constant Ki in assay [1] of 90 nM. Also, the figures for the Kd in assay [3] and in assay [4] were 422 nM and 7310 nM, respectively.

B35: BCY16966 (peptide)
peptide: ACSPDAYLGC[Tle]SYCA
modifications: linker 2-10-14 via TATB
On to B35, for which, in assay [4], the Kd is 1900 nM.

B36: BCY16964 (peptide)
peptide: ACPPDAYLGC[Tle]SYCA
modifications: linker 2-10-14 via TATB
In the case of B36, the Kd in assay [4] came out at 514 nM.

B37: BCY16558 (peptide)
peptide: ACSPDAYLGC[tBuAla]SYCA
modifications: linker 2-10-14 via TATB
As for B37, the Ki in assay [1] and in assay [2] was 1620 nM each time. In addition, the equilibrium dissociation constant (Kd) came out at 20000 nM in assay [3] and 50000 nM in assay [4].

B38: BCY16040 (peptide)
peptide: ACSPDAHLGCXSYCA
modifications: 3 Cys on TATB; core as printed CSPDAHLGC[B-Melle]SYC (beta-methyl isoleucine)
In assay [1], B38 gave a Ki of 20000 nM.

B39: BCY18035 (peptide)
peptide: Ac-N[dW]NCSPDAHLGCISYC
modifications: linker 4-12-16 via TATB (inferred)
For the molecule B39, the Kd in assay [4] stood at 10300 nM.

B40: BCY15889 (peptide)
peptide: Ac-CPPDAHLGCISWC-NH2
modifications: linker 1-9-13 via TATB
SMILES: CC[C@H](C)[C@@H]1NC(=O)[C@@H]2CSCC(=O)N3CN(CN(C3)C(=O)CSC[C@H](NC(C)=O)C(=O)N3CCC[C@H]3C(=O)N3CCC[C@H]3C(=O)N[C@@H](CC(=O)O)C(=O)N[C@@H](C)C(=O)N[C@@H](Cc3c[nH]cn3)C(=O)N[C@@H](CC(C)C)C(=O)NCC(=O)N2)C(=O)CSC[C@@H](C(N)=O)NC(=O)[C@H](Cc2c[nH]c3ccccc23)NC(=O)[C@H](CO)NC1=O
In assay [1], B40 showed a Ki of 40 nM.
